Columns and labels:
recombinant human LIFR = biological target: T1, recombinant human LIFR (human, UniProt P42702 45-833, limits assumed); assay: BLI (Octet RED96), control experiment, h5D8 on anti-human Fc sensor
T1 construct: also called hLIFR; LIF receptor
T1 sequence (looked up): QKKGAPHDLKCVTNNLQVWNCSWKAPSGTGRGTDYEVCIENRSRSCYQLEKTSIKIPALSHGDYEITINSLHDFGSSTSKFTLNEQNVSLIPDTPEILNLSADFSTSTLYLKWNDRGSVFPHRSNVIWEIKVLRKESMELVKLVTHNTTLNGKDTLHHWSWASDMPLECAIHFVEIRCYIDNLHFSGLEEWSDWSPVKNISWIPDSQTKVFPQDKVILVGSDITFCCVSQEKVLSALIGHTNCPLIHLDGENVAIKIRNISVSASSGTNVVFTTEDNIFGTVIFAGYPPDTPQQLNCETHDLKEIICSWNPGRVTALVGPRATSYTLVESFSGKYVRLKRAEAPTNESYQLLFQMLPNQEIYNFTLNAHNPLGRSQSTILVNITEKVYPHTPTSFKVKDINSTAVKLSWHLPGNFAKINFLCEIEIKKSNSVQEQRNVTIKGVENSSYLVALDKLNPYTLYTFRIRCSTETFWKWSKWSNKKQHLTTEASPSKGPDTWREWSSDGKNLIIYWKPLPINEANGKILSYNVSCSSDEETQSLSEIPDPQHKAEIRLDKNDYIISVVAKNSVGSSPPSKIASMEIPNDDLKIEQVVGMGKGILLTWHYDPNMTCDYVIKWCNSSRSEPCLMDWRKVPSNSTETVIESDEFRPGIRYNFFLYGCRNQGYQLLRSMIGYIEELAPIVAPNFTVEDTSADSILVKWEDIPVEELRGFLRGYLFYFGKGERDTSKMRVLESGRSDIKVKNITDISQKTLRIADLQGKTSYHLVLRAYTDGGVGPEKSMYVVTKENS

huIL-6 (E. coli) = biological target: T2, huIL-6 (E. coli) (human, UniProt P05231 30-212, limits assumed); assay: BLI (Octet), h5D8 amine-coupled to AR2G sensor, cytokine as analyte
T2 construct: also called human IL-6
Protocol: Kinetics experiments were then performed with the following Dip and Read steps at 30° C., 1000 rpm: vi) 60 seconds Baseline in 1× kinetics buffer; vii) 180 seconds Association of appropriate serial dilutions of a cytokine in 1× kinetics buffer; viii) 300 seconds Dissociation in 1× kinetics buffer; ix) Three Regeneration/Neutralization cycles alternating between 10 mM glycine pH 2.0 and 1× kinetics buffer respectively (5 seconds in each for 3 cycles). Following regeneration, the biosensors were reused for subsequent binding analyses.

[1] = biological target: LIF acting on U251 / U-251 glioma cells (endogenous LIF) (human, UniProt P15018 23-202); assay: cell-based or functional assay
recombinant human gp130 = biological target: T3, recombinant human gp130 (human, UniProt P40189 23-619, limits assumed); assay: ELISA of mAb/LIF complexes on immobilized gp130, read through the antibody part (B09, anti-rat IgG-peroxidase)
T3 sequence (looked up): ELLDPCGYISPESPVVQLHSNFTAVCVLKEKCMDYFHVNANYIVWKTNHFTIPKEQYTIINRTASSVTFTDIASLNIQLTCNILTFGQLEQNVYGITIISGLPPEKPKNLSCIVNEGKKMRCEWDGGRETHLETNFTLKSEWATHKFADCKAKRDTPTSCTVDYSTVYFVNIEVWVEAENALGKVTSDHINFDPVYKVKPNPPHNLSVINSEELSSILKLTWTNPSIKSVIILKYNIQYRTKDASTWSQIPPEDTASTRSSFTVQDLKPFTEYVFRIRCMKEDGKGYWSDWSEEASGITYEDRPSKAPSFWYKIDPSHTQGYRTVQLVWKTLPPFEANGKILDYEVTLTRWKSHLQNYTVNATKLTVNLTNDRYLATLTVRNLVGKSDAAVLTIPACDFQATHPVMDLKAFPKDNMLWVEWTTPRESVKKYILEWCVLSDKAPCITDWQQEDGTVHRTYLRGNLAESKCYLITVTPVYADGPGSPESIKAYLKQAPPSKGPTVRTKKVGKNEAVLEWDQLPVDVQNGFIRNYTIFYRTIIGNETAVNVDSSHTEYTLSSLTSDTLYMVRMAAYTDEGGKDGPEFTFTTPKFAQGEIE

T2 sequence (P05231 30-212 limits assumed): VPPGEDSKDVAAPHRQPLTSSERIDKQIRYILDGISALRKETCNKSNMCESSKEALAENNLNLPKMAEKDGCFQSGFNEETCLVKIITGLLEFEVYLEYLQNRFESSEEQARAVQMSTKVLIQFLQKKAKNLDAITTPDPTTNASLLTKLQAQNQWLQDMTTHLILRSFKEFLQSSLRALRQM
Sequence of LIF acting on U251 / U-251 glioma cells (endogenous LIF) (P15018 23-202 limits assumed): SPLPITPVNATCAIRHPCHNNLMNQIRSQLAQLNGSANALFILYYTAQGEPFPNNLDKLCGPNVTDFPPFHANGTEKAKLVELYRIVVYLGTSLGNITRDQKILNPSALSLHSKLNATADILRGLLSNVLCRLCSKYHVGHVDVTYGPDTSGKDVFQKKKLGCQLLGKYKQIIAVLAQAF

Binder | binding result (recombinant human LIFR) | binding result (huIL-6 (E. coli)) | IC50 for biological inhibition (pSTAT3), serum starved U-251 cells [1] [picomolar] | binding result (recombinant human gp130)
h5D8 (humanized 5D8 comprising H2 and L2) (antibody, human IgG1, kappa, V domains shown, also called H2L2; G (H2L2)) VH: QVQLQESGGGLVKPGGSLRLSCAASGFTFSHAWMHWVRQAPGKGLEWVGQIKAKSDDYATYYAESVKGRFTISRDDSKNTLYLQMNSLKTEDTAVYYCTCWEWDLDFWGQGTMVTVSS VL: DIVMTQTPLSSPVTLGQPASISCRSSQSLLDSDGHTYLNWLQQRPGQPPRLLIYSVSNLESGVPDRFSGSGAGTDFTLKISRVEAEDVGVYYCMQATHAPPYTFGQGTKLEIKR | no binding | no binding | 490 | 
human LIF (source not stated) (ligand, also called hLIF; recombinant human LIF protein) not shown |  |  |  | binds

— patent publication US20230042095A1 (AstraZeneca / MedImmune, published 2023)
